Data from US20190055316A1 (published 2019).
One block for each binder: values may come before it.

How the values were obtained:
[1] = molecular target: 158.3; experiment: Biacore
[2] = molecular target: 2.69 LC2; experiment: Biacore
[3] = molecular target: 151; experiment: Biacore
[4] = molecular target: 158.3; experiment: KinExA
[5] = molecular target: 151; experiment: KinExA

Kd [1]: 2.4 nM
Kd [2]: 0.228 nM
Kd [3]: 17.4 nM
B1: Soluble human MSLN (other)
chain: EVEKTACPSGKKAREIDESLIFYKKWELEACVDAALLATQMDRVNAIPFTYEQLDVLKHKLDELYPQGYPESVIQHLGYLFLKMSPEDIRKWNVTSLETLKALLEVNKGHEMSPQAPRRPLPQVATLIDRFVKGRGQLDKDTLDTLTAFYPGYLCSLSPEELSSVPPSSIWAVRPQDLDTCDPRQLDVLYPKARLAFQNMNGSEYFVKIQSFLGGAPTEDLKALSQQNVSMDLATFMKLRTDAVLPLTVAEVQKLLGPHVEGLKAEERHRPVRDWILRQRQDDLDTLGLGLQGGIPNGYLVLDLSMQEALS

Kd [4]: 0.0122 nM
Kd [5]: 0.03 nM
B2: Native hu MSLN (cells) (other)
chain: B1 chain
